The values that follow come from patent publication US20030092885A1, “Solubility and stability enhancement tag for structural and ligand binding studies of proteins” (President and Fellows of Harvard College, priority 2001, published 2003).

The nature of data set [1]: Solution stability (time until the sample precipitates) with and without the tag. It is filed as physicochemical. The settings on record: FAIM, 25° C.
The nature of data set [2]: Solubility of target protein or complex with and without the small solubility and stability enhancing tag. It is filed as physicochemical.

B1: FAIM protein: 20 kDa apoptosis inhibitor in b cells, untagged (protein, UniProt Q9NVQ4 2-179, looked up)
Fas apoptotic inhibitory …: TDLVAVWDVALSDGVHKIEFEHGTTSGKRVVYVDGKEEIRKEWMFKLVGKETFYVGAAKTKATINIDAISGFAYEYTLEINGKSLKKYMEDRSKTTNTWVLHMDGENFRIVLEKDAMDVWCNGKKLETAGEFVDDGTETHFSIGNHDCYIKAVSSGKRKEGIIHTLIVDNREIPEIAS
B1: in data set [1], the “time until precipitation from solution / stable in solution” value was “one week”. In data set [2] (FAIM), the “can be concentrated up to” value is given as “up to 1 mM”.

B2: DFF45 NTD: N-terminal domain of human DNA fragmentation factor 45, unfolded when free (protein, UniProt O00273 1-116, looked up, fragment)
chain: MEVTGDAGVPESGEIRTLKPCLLRRNYSREQHGVAASCLEDLRSKACDILAIDKSLTPVTLVLAEDGTIVDDDDYFLCLPSNTKFVALASNEKWAYNNSDGGTAWISQESFDVDET
Consider B2, for which the solubility in data set [2] (FIG. 4 legend) turned out to be 200 µM.
